Measurements published in US20220275101A1, “Use of Approved Anti-CD38 Antibody Drug Product to Treat Light Chain Amyloidosis” (Janssen Biotech, Inc., priority 2021, published 2022).
Marks after values point to notes of the source that are not given here.

Key:
[1] = system: relapsed or refractory multiple myeloma; assay: COLUMBA monotherapy, efficacy; type: in vivo, human
Excerpt: The major efficacy outcome measures were ORR by the IMWG response criteria and maximum Ctrough at pre-dose Cycle 3 Day 1 [see Clinical Pharmacology (12.3)]. Randomization was stratified by body weight, myeloma type, and number of prior lines of therapy.

[2] = Daratumumab pharmacokinetics in patients with multiple myeloma; type: in vivo, human
[3] = COLUMBA monotherapy, safety (relapsed/refractory multiple myeloma)
Experimental: FASPRO 1,800 mg/30,000 units administered subcutaneously or daratumumab 16 mg/kg administered intravenously; each administered once weekly from weeks 1 to 8, once every 2 weeks from weeks 9 to 24 and once every 4 weeks starting with week 25 until disease progression or unacceptable toxicity.

[4] = Daratumumab pharmacokinetics in patients with light chain (AL) amyloidosis; type: in vivo, human
[5] = Daratumumab pharmacokinetics after DARZALEX FASPRO, population not specified or pooled; type: in vivo, human; conditions: DARZALEX FASPRO as monotherapy or combination therapy
[6] = biological target: T1, CD38 on red blood cells (RBCs) (Homo sapiens, UniProt P28907); assay: Interference with Indirect Antiglobulin Test (Indirect Coombs test)
T1 construct: endogenous in cells; host or cells: red blood cells (reagent RBCs used in blood-bank compatibility testing)
Excerpt: Daratumumab binds to CD38 on red blood cells (RBCs) and results in a positive Indirect Antiglobulin Test (Indirect Coombs test). Daratumumab-mediated positive indirect antiglobulin test may persist for up to 6 months after the last daratumumab administration. Daratumumab bound to RBCs masks detection of antibodies to minor antigens in the patient's serum [see References (15)]. The determination of a patient's ABO and Rh blood type are not impacted [see Drug Interactions (7.1)].
Daratumumab binds to CD38 on RBCs and interferes with compatibility testing, including antibody screening and cross matching. Daratumumab interference mitigation methods include treating reagent RBCs with dithiothreitol (DTT) to disrupt daratumumab binding [see References (15)] or genotyping. Since the Kell blood group system is also sensitive to DTT treatment, supply K-negative units after ruling out or identifying alloantibodies using DTT-treated RBCs.

[7] = Hyaluronidase effect on permeability of the subcutaneous tissue
Excerpt: Hyaluronan is a polysaccharide found in the extracellular matrix of the subcutaneous tissue. It is depolymerized by the naturally occurring enzyme hyaluronidase. Unlike the stable structural components of the interstitial matrix, hyaluronan has a half-life of approximately 0.5 days. Hyaluronidase increases permeability of the subcutaneous tissue by depolymerizing hyaluronan. In the doses administered, hyaluronidase in DARZALEX FASPRO acts locally. The effects of hyaluronidase are reversible and permeability of the subcutaneous tissue is restored within 24 to 48 hours.

[8] = Hyaluronidase developmental toxicity in mice; type: in vivo
Excerpt: There were no effects on pre- and post-natal development through sexual maturity in offspring of mice treated daily from implantation through lactation with 990,000 U/kg hyaluronidase subcutaneously, which is 134 times higher than the human doses.

[9] = Hyaluronidase subcutaneous exposure and toxicity in monkeys; type: in vivo
Experimental: No carcinogenicity, genotoxicity, or fertility studies were conducted for recombinant human hyaluronidase. […] As hyaluronidase is a recombinant form of the endogenous human hyaluronidase, no carcinogenicity, mutagenesis, or effects on fertility are expected.

[10] = monkeys, 22,000 U/kg/week subcutaneously for 39 weeks

Intravenous Daratumumab: daratumumab 16 mg/kg administered intravenously, comparator arm in COLUMBA
CR or better, % [1]: 2.7%
Median progression-free survival [1]: 6.1 months
Partial response (PR), % [1]: 20%
Very good partial response (VGPR), % [1]: 14%
Overall response (sCR + CR + VGPR + PR), % ([1]; intent-to-treat population): 37%
Observed mean ± SD max Ctrough after 8th dose ([2]; patients with multiple myeloma): 522 ± 226^a, b μg/mL
Back pain, All Grades ([3]; monotherapy): 12%
Back pain, Grade ≥ 3 ([3]; monotherapy): 3^# %
Chills, All Grades ([3]; monotherapy): 12%
Chills, Grade ≥ 3 ([3]; monotherapy): 1^# %
Cough, All Grades ([3]; monotherapy): 14%
Cough, Grade ≥ 3 ([3]; monotherapy): 0^ %
Diarrhea, All Grades ([3]; monotherapy): 11%
Diarrhea, Grade ≥ 3 ([3]; monotherapy): 0.4^# %
Dyspnea, All Grades ([3]; monotherapy): 11%
Dyspnea, Grade ≥ 3 ([3]; monotherapy): 1^# %
Fatigue, All Grades ([3]; monotherapy): 16%
Fatigue, Grade ≥ 3 ([3]; monotherapy): 2^# %
Infusion reactions, All Grades ([3]; monotherapy): 34%
Infusion reactions, Grade ≥ 3 ([3]; monotherapy): 5^# %
Nausea, All Grades ([3]; monotherapy): 11%
Nausea, Grade ≥ 3 ([3]; monotherapy): 0.4^# %
Pneumonia, All Grades ([3]; monotherapy): 10%
Pneumonia, Grade ≥ 3 ([3]; monotherapy): 6^@ %
Pyrexia, All Grades ([3]; monotherapy): 13%
Pyrexia, Grade ≥ 3 ([3]; monotherapy): 1^# %
Upper respiratory tract infection, All Grades ([3]; monotherapy): 22%
Upper respiratory tract infection, Grade ≥ 3 ([3]; monotherapy): 1^# %
Decreased hemoglobin, All Grades ([3]; worsening from baseline): 39%
Decreased hemoglobin, Grades 3-4 ([3]; worsening from baseline): 16%
Decreased leukocytes, All Grades ([3]; worsening from baseline): 57%
Decreased leukocytes, Grades 3-4 ([3]; worsening from baseline): 14%
Decreased lymphocytes, All Grades ([3]; worsening from baseline): 56%
Decreased lymphocytes, Grades 3-4 ([3]; worsening from baseline): 36%
Decreased neutrophils, All Grades ([3]; worsening from baseline): 43%
Decreased neutrophils, Grades 3-4 ([3]; worsening from baseline): 11%
Decreased platelets, All Grades ([3]; worsening from baseline): 45%
Decreased platelets, Grades 3-4 ([3]; worsening from baseline): 14%

Daratumumab: IgG1κ human monoclonal antibody that binds CD38; heavy chain SEQ ID NO: 12, light chain SEQ ID NO: 13
estimated mean volume of distribution ([4]; CV 28%): 10.8 L
estimated mean (CV %) linear clearance ([4]; CV 42%): 210 mL/day
estimated mean (CV %) elimination half-life associated with linear clearance ([4]; CV 74%): 28 days
effect of sex, age (33 to 92 years), renal impairment (CLcr 15 to 89 mL/min) and mild hepatic impairment on pharmacokinetics [5]: no clinically meaningful effect
estimated mean volume of distribution, peripheral compartment ([2]; multiple myeloma): 3.8 L
estimated mean (CV %) elimination half-life associated with linear clearance ([2]; multiple myeloma, CV 22%): 20 days
estimated mean (CV) volume of distribution for the central compartment ([2]; multiple myeloma, CV 37%): 5.2 L
estimated mean (CV %) linear clearance ([2]; multiple myeloma, CV 59%): 119 mL/day
persistence of positive indirect antiglobulin test after the last administration [6]: up to 6 months
Indirect Antiglobulin Test (Indirect Coombs test) result ([6]; binding to CD38 on RBCs): positive

B1: hyaluronidase: recombinant human hyaluronidase rHuPH20, SEQ ID NO: 22, residues 36-482 of wild type human hyaluronidase (protein, listed as Homo sapiens)
chain: LNFRAPPVIPNVPFLWAWNAPSEFCLGKFDEPLDMSLFSFIGSPRINATGQGVTIFYVDRLGYYPYIDSITGVTVNGGIPQKISLQDHLDKAKKDITFYMPVDNLGMAVIDWEEWRPTWARNWKPKDVYKNRSIELVQQQNVQLSLTEATEKAKQEFEKAGKDFLVETIKLGKLLRPNHLWGYYLFPDCYNHHYKKPGYNGSCFNVEIKRNDDLSWLWNESTALYPSIYLNTQQSPVAATLYVRNRVREAIRVSKIPDAKSPLPVFAYTRIVFTDQVLKFLSQDELVYTFGETVALGASGIVIWGTLSIMRSMKSCLLLDNYMETILNPYIINVTLAAKMCSQVLCQEQGVCIRKNWNSSDYLHLNPDNFAIQLEKGGKFTVRGKPTLEDLEQFSEKFYCSCYSTLSCKEKADVKDTDAVDVCIADGVCIDAFLKPPMETEEPQIFY
time until permeability of the subcutaneous tissue is restored [7]: 24 to 48 h
effects on post-natal development through sexual maturity in offspring ([8]; mice treated daily during lactation, 990,000 U/kg subcutaneously): no effects
effects on pre- and post-natal development through sexual maturity in offspring ([8]; mice treated daily from implantation through lactation, 990,000 U/kg subcutaneously): no effects
effects on embryo-fetal development ([8]; pregnant mice, 330,000 U/kg subcutaneously daily during organogenesis): no effects
systemic exposure of hyaluronidase ([9]; monkeys, 22,000 U/kg subcutaneously (12 times the human dose)): No systemic exposure of hyaluronidase was detected
effects on reproductive tissues and function [9, 10]: no effects
systemic exposure of hyaluronidase [9, 10]: no systemic exposure
